Results from article PMC7878818, “Structural mechanism of bivalent histone H3K4me3K9me3 recognition by the Spindlin1/C11orf84 complex in rRNA transcription activation” (Nature Communications, 2021).
Square brackets hold non-standard residues; d marks the D form. Ends that are not written are not given here. Me3 = trimethyl group on lysine (trimethyl-lysine); Arg(Me2a) = CN(C)C(=N)NCCC[C@H](N)C(=O)O; Lys(Me3) = C[N+](C)(C)CCCC[C@H](N)C(=O)O

Key:
Settings in all cases: both partners purified
[1] = target: T1, Spindlin1 (aa: 50-262) (human); experiment: ITC; 25 °C, MicroCal ITC200; 20 mM HEPES pH 7.5, 150 mM NaCl; 0.8 mM H3 peptide injected into 50 μM protein or complex in the sample cell
T1 construct: for the ITC of 'Spindlin1' alone the limits are not restated

[2] = target: T2, Spindlin4 (human); experiment: as above
T2 construct: human Spindlin4; Construct, host and purification of the Spindlin4 used for ITC are told nowhere
T2 chain: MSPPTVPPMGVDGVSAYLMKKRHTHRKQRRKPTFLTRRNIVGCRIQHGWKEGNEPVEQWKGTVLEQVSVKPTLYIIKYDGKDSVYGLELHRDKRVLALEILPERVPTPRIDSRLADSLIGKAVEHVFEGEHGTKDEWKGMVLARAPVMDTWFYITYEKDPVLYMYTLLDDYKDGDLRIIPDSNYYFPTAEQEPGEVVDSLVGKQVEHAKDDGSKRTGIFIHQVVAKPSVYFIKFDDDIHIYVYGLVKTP

[3] = target: T3, Spindlin1 (aa: 50–262) (human, UniProt Q9Y657 50-262); experiment: anion-exchange chromatography; co-expressed Spindlin1 (aa 50-262) and C11orf84 (aa 219-305); SDS-PAGE of the peak fraction
T3 construct: The methods describe only co-expression plasmids with C11orf84; also called Spindlin1 alone

[4] = target: T3, Spindlin1 (aa: 50–262); experiment: ITC; 25 °C, MicroCal ITC200; 20 mM HEPES pH 7.5, 150 mM NaCl; 50 μM Spindlin1 or Spindlin1/C11orf84 complex in the cell, 0.8 mM peptide injected
[5] = target: T4, Spindlin1 (aa: 50–262)/C11orf84 (aa: 253–295) binary complex (human, UniProt Q9Y657 50-262; Q9BUA3 253-295); experiment: crystal structure; 1:1.5 molar ratio of Spindlin1 (aa 50-262)/C11orf84 (aa 253-295) binary complex and H3K4me3K9me3 (A1-G12) peptide; hanging drop, 291 K; 1.60 Å
T4 construct: This binary complex was mixed with the H3K4me3K9me3 (A1-G12) peptide for crystallisation; also called Spindlin1/C11orf84

[6] = target: T3, Spindlin1 (aa: 50–262); experiment: as above

T3 sequence (Q9Y657 50-262): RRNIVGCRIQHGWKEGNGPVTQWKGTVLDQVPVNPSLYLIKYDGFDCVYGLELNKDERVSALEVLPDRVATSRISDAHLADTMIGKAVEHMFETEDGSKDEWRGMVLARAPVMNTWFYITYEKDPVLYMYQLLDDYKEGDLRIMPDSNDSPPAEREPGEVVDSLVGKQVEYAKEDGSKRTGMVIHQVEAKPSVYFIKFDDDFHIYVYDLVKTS
T1 sequence (chain, as listed by the source): as the sequence (Q9Y657 50-262) above
T4 sequence (Q9Y657 50-262, one chain of several): as the sequence (Q9Y657 50-262) above

B1: H3K4me3R8me2a peptide, H3 (1-12) (peptide)
peptide: ARTK(Me3)QTAR(asymmetric Me2)KSTG
notes: histone H3 N-terminal tail, residues 1-12
In the case of B1, the Kd [1] is reported as 170 nM and the “stoichiometry N” value [1] is reported as 1.02.

B2: H3K4me3K9me3 peptide, H3 (1-12) (peptide)
peptide: ARTK(Me3)QTARK(Me3)STG
notes: histone H3 N-terminal tail, residues 1-12; also called H3K4me3K9me3 (A1-G12) peptide
For B2, the Kd [2] was 41 ± 5 nM and the “stoichiometry N” value [1] was 1.04.

B3: C11orf84 (aa: 219–305) (domain or fragment, human, UniProt Q9BUA3 219-305, looked up)
chain: WKEPPGEEPVRKKRGRPMTKNLDPDPEPPSPDSPTETFAAPAEVRHFTDGSFPAGFVLQLFSHTQLRGPDSKDSPKDREVAEGGLPR
B3: binds [3].

ART[Lys(Me3)]QTA[Arg(Me2a)]KSTG [H3K4me3R8me2a peptide] was tested, and the “fold by which the affinity for H3K4me3K9me3 is higher than for this peptide” value [4] was about 4 fold.

B4: H3K4me3K9me3 (A1-G12) peptide (peptide, UniProt P68431 2-13, looked up)
peptide: ARTK(Me3)QTARK(Me3)STG
notes: histone H3 residues A1-G12; This is the peptide of the crystal structure; also called H3K4me3K9me3 peptide; methyl histone peptide
B4: binds [5]; binds [6].

B5: C11orf84 (aa: 253–295) (domain or fragment, human, UniProt Q9BUA3 253-295, looked up)
chain: TETFAAPAEVRHFTDGSFPAGFVLQLFSHTQLRGPDSKDSPKD
notes: T255-Q283 defined in the electron density; The cloning of this fragment is not described; It is named only as part of the binary complex used for crystallisation; also called C11orf84 fragment; C11orf84 segment
B5: binds [6].
